Tested on: T1, promolecule containing protonectin (portion A), PR linker (X2) and PAR-1 exosite recognition sequence (portion Z), Cy3 on an N-terminal lysine
T1 sequence: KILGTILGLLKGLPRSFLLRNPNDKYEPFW

thrombin
KM (Michaelis-Menten, digestion followed by reverse phase HPLC): KM 200 nM | kcat/KM (Michaelis-Menten, digestion followed by reverse phase HPLC): kcat/KM=8 µM^-1 sec^-1
